{"source": "patent US9823254B2", "about": "“Reversible chemoenzymatic labeling of native and fusion carrier protein motifs” (The Regents of the University of California, priority 2012, dated 2017)", "molecules": {"B1": {"name": "PaAcpH: acyl carrier protein hydrolase (AcpH) from P. aeruginosa PAO1, NP13 253043.1 (protein)", "chain": "MNYLAHLHLGGPQPAQLLGSLYGDFVKGRLQGQWPDEIERAIQLHRRIDAFTDSHPLVHAAKRRFPLERRRFAGVLLDVFFDHCLARDWNDYADEPLPQFVERVYGTLRTASPLPERLARIAPRMAAQDWLGSYREFAVLREVLGGMSRRLSRPHLLDGSWEELAQRYDDLSADFRAFYPQLQAFALSQR"}}, "key": {"E. coli AcpP": {"molecular_target": "E. coli AcpP (Escherichia coli, UniProt P0A6A8)", "settings": "FAS; crypto-CP (coumarin-PPant), overnight, 37° C., 1 μM AcpH", "procedure": "(§1) Unless otherwise noted, all coumarin-PPant labeling proceeded as follows: apo-carrier protein or peptide at 50-200 μM were labeled in 50 mM Na-HEPES pH 7.5, 10 mM MgCl2, 8 mM ATP, 0.1 μM MBP-CoaA/D/E, 0.1 μM native Sfp, and 1.1 equivalents of coumarin-pantetheine at 37° C. overnight. Crypto-protein samples were repurified using standard IMAC techniques in pH 8 lysis buffer with Ni-NTA resin, and spin-concentrated/buffer exchanged to remove imidazole and concentrate with 0.5 mL 3 kDa MWCO cellulose filters. Crypto-peptide samples were purified with HPLC, lyophilized, and redissolved in 50 mM TrisCl pH 8.0 prior to analysis.\n(§2) Following AcpH treatment, an equal volume of 2×SDS-PAGE loading dye was added to crypto-carrier proteins samples and heated 5 min at 90° C., and run on 12% or 15% SDS-PAGE. Gels were fixed in 50/40/10% water/methanol/acetic acid for 30 minutes, and washed with water three times before UV imaging. Holo-carrier protein reactions were analyzed with Urea-PAGE as previously described.^6 All protein gels were Coomassie stained for evaluating total protein. Crypto-peptides were evaluated on Urea-PAGE, and were imaged immediately after running with no gel fixing."}, "P. aeruginosa AcpP": {"molecular_target": "P. aeruginosa AcpP (Pseudomonas aeruginosa, UniProt O54439)", "settings": "FAS; crypto-CP (coumarin-PPant), overnight, 37° C., 1 μM AcpH", "procedure": "as §1, §2"}, "S. oneidensis AcpP": {"tested_on": "S. oneidensis AcpP", "assay": "AcpH qualitative CP activity, holo-SoAcpP, Urea-PAGE", "assay_type": "biochemical", "settings": "FAS, Urea-PAGE gel-shift, shorter timescale"}, "P. falciparum ACP": {"tested_on": "P. falciparum ACP", "assay": "AcpH qualitative CP activity, gel-based, crypto-CP", "assay_type": "biochemical", "settings": "FAS; crypto-CP (coumarin-PPant), overnight, 37° C., 1 μM AcpH"}, "M. tuberculosis MAS": {"tested_on": "M. tuberculosis MAS", "assay": "AcpH qualitative CP activity, gel-based, crypto-CP", "assay_type": "biochemical", "settings": "FAS (FAS/PKS hybrid), overnight, 37° C., 1 μM AcpH"}, "S. coelicolor ActACP": {"molecular_target": "T1, S. coelicolor ActACP (Streptomyces coelicolor, UniProt Q02054)", "T1 construct": "made in house", "T1 sequence (Q02054 whole entry, looked up)": "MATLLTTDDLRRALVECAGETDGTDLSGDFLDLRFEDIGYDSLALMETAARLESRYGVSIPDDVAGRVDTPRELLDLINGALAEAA", "assay": "AcpH qualitative CP activity, gel-based, crypto-CP", "assay_type": "biochemical", "settings": "PKS; crypto-CP (coumarin-PPant), overnight, 37° C., 1 μM AcpH"}, "L majuscula JamC": {"molecular_target": "T2, L majuscula JamC (Moorena producens, UniProt Q6E7K7)", "T2 construct": "made in house", "assay": "AcpH qualitative CP activity, gel-based, crypto-CP", "assay_type": "biochemical", "settings": "PKS; crypto-CP (coumarin-PPant), overnight, 37° C., 1 μM AcpH"}, "L majuscula JamF": {"tested_on": "L majuscula JamF", "assay": "AcpH qualitative CP activity, gel-based, crypto-CP", "assay_type": "biochemical", "settings": "PKS; crypto-CP (coumarin-PPant), overnight, 37° C., 1 μM AcpH"}, "P. agglomerans AdmI": {"tested_on": "P. agglomerans AdmI", "assay": "AcpH qualitative CP activity, gel-based, crypto-CP", "assay_type": "biochemical", "settings": "PKS; crypto-CP (coumarin-PPant), overnight, 37° C., 1 μM AcpH"}, "P. agglomerans AdmA": {"tested_on": "P. agglomerans AdmA", "assay": "AcpH qualitative CP activity, gel-based, crypto-CP", "assay_type": "biochemical", "settings": "NRPS; crypto-CP (coumarin-PPant), overnight, 37° C., 1 μM AcpH"}, "P. fluorescens PltL": {"tested_on": "P. fluorescens PltL", "assay": "AcpH qualitative CP activity, gel-based, crypto-CP", "assay_type": "biochemical"}, "P. syringae SyrB1": {"molecular_target": "P. syringae SyrB1 (Pseudomonas syringae pv. syringae, UniProt Q52400)", "assay": "AcpH qualitative CP activity, gel-based, crypto-CP", "assay_type": "biochemical", "settings": "NRPS; crypto-CP (coumarin-PPant), overnight, 37° C., 1 μM AcpH"}, "crypto-FITC-YbbR (3)": {"molecular_target": "T3, crypto-FITC-YbbR (3) (Bacillus subtilis, UniProt O34659)", "T3 construct": "made in house; host or cells: enzymatic labelling of FITC-ybbR peptide with Sfp and rhodamine-CoA", "T3 sequence (O34659 whole entry, looked up)": "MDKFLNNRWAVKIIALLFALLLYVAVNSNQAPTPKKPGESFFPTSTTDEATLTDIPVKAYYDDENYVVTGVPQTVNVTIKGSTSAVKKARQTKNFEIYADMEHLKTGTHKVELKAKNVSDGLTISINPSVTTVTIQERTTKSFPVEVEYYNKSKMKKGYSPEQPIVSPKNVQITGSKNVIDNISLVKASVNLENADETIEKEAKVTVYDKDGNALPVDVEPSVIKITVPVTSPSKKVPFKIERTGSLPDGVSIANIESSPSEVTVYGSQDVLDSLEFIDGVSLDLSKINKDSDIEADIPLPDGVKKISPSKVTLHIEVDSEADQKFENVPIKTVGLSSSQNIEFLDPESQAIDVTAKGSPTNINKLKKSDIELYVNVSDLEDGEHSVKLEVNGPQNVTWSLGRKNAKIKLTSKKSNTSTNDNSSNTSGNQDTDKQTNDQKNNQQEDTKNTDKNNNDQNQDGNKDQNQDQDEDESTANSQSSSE", "assay": "FRET-quench microwell AcpH kinetics", "assay_type": "biochemical", "settings": "37° C., FRET-quench microwell plate assay, [AcpH] 1 μm", "procedure": "Preparation of rhodamine-labeled FITC-ybbR proceeded via reaction of 200 μM FITC-ybbR with 200 μM rhodamine WT-CoA synthesized as described previously^33 with 1 μM Sfp in 50 mM HEPES pH 7.5 and 10 mM MgCl2 for 2 hours at 37° C.\nRhodamine-labeled FITC-Ybbr as well as standard 1:1 apo-FITC-ybbR:rhodamine-CoA was subjected to an 11-point serial dilution in 50 mM TrisCl pH 8.0 to achieve final concentrations of 400-0.4 μM. […] Total reaction volumes were 50 μL and utilized a 96-well Costar 3694 plate (Corning, Lowell, Mass.). Following mixing, reactions were centrifuged for 2 minutes at 1500 rpm, and incubated at 37° C. over 4 hours in a HTS 7000 plus Bioassay Reader (Perkin Elmer, Waltham, Mass.) in kinetic mode. Comparison of enzyme reactions to buffer blank and 1:1 apo-FITC-ybbR:rhodamine-CoA standard allowed calculation of product formation and determination of Michaelis-Menten kinetics using GraphPad Prism."}, "V. cholerae VibB": {"molecular_target": "T4, V. cholerae VibB (Vibrio cholerae serotype O1, UniProt P0C6D3)", "T4 sequence (P0C6D3 whole entry, looked up)": "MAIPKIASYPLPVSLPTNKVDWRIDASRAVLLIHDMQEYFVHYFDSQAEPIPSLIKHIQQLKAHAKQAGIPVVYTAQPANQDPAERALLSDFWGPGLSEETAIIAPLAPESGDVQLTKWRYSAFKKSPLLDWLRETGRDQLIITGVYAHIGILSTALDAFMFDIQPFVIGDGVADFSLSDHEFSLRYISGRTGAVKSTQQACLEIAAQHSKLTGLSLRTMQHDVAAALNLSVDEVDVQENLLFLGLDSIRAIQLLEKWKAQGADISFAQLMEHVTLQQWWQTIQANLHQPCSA", "settings": "NRPS; crypto-CP (coumarin-PPant), overnight, 37° C., 1 μM AcpH"}, "holo-ACP (E. coli)": {"molecular_target": "holo-ACP (E. coli) (Escherichia coli, UniProt P0A6A8)", "settings": "37° C., HPLC detection, [AcpH] 1 (CyAcpH 0.005) μm", "method": "Holo-E. coli AcpP was prepared as a serial dilution in 50 mM TrisCl, 250 mM NaCl, 30 mM MgCl2, and 2 mM MnCl2. […] CyAcpH was prepared at 10 nM in the same AcpH buffer. […] Reactions were transferred to prewarmed shaker at 37° C. and were quenched with 100 mM EDTA after 10 minutes. Samples were centrifuged and evaluated at 210 nm with HPLC using an acetonitrile gradient to determine apo-AcpP product formation. Michaelis-Menten kinetics were calculated using GraphPad Prism (GraphPad Software, La Jolla, Calif.).\nE. coli holo-ACP was diluted into 50 mM TrisCl pH 8.0, 250 mM NaCl, 10% glycerol, 30 mM MgCl2 and 2 mM MnCl2 buffer to a concentration of 800 μM. […] AcpH was diluted from MOPS lysis buffer into 50 mM TrisCl pH 8.0, 250 mM NaCl, 10% glycerol and added to an equal volume of the holo-ACP serial dilution to initiate the reaction. Reaction tubes were transferred to a pre-warmed rack at 37° C. and shaken for the duration of the experiment. […] All samples were frozen at -80° C. until evaluated by HPLC.\nKinetics samples were mixed briefly with finger flicking, and centrifuged at 13000 rpm for 10 minutes at room temperature prior to transferring contents into HPLC vials. 20 μL of each reaction time point was injected on an Agilent 1100 series HPLC with column (Burdick & Jackson OD5 #9575, 25 cm×4.6 mm ID) using an acetonitrile/water gradient. Both water and acetonitrile contained 0.05% TFA. Method gradient for each injection: 0-5 min with 10% acetonitrile, 5-30 min with 10-100% acetonitrile, 30-35 min with 100% acetonitrile, 35-37 min with 100-10% acetonitrile, 37-40 min with 10% acetonitrile. HPLC-grade solvents (J. T. Baker, Phillipsburg, N.J.) were used exclusively. Apo- & holo-ACP protein standards were used to validate the retention times identified using 210 nm UV light at approximately 21 and 19 minutes, respectively. Peak integration was performed for all samples, and substrate turnover was calculated from the ratio of apo- to holo-ACP present in the HPLC trace and the known concentration of total ACP in reaction samples. Calculated rates for AcpH versus substrate concentration were obtained through Excel data analysis and graphed in Prism GraphPad using the “Michaelis-Menten” function for enzyme kinetics, with a zero data point added for substrate concentration of 0 μM*min-1 and 0 μM substrate for AcpH graphs."}}, "note": "Several values for one entry are separate records, joined by “and”; a condition that tells them apart may be missing. Identical values can stand only once.", "data": [{"molecule": "B1", "values": [{"measurement": "AcpH qualitative CP activity", "setting": "E. coli AcpP", "value": "YES"}, {"measurement": "AcpH qualitative CP activity", "setting": "P. aeruginosa AcpP", "value": "YES"}, {"measurement": "AcpH qualitative CP activity", "setting": "S. oneidensis AcpP", "value": "YES^†"}, {"measurement": "AcpH qualitative CP activity", "setting": "P. falciparum ACP", "value": "YES"}, {"measurement": "AcpH qualitative CP activity", "setting": "M. tuberculosis MAS", "value": "no"}, {"measurement": "AcpH qualitative CP activity", "setting": "S. coelicolor ActACP", "value": "no"}, {"measurement": "AcpH qualitative CP activity", "setting": "L majuscula JamC", "value": "YES"}, {"measurement": "AcpH qualitative CP activity", "setting": "L majuscula JamF", "value": "no"}, {"measurement": "AcpH qualitative CP activity", "setting": "P. agglomerans AdmI", "value": "no"}, {"measurement": "AcpH qualitative CP activity", "setting": "P. agglomerans AdmA", "value": "no"}, {"measurement": "AcpH activity with PltL", "setting": "P. fluorescens PltL; NRPS-type PCP, crypto-PltL", "value": "partial activity"}, {"measurement": "AcpH qualitative CP activity", "setting": "P. fluorescens PltL; NRPS, crypto-CP (coumarin-PPant), overnight, 37° C., 1 μM AcpH", "value": "YES"}, {"measurement": "AcpH qualitative CP activity", "setting": "P. syringae SyrB1", "value": "no"}, {"measurement": "Km", "setting": "crypto-FITC-YbbR (3)", "value": 177, "unit": "µM"}, {"measurement": "Vmax", "setting": "crypto-FITC-YbbR (3)", "value": "0.008 ± 0.016", "unit": "min⁻¹"}, {"measurement": "kcat", "setting": "crypto-FITC-YbbR (3)", "value": "0.00013 ± 0.000267", "unit": "s⁻¹"}, {"measurement": "AcpH qualitative CP activity", "setting": "V. cholerae VibB", "value": "no"}, {"measurement": "Km", "setting": "holo-ACP (E. coli)", "value": "12 ± 2", "unit": "µM"}, {"measurement": "Vmax", "setting": "holo-ACP (E. coli)", "value": "0.59 ± 0.02", "unit": "min⁻¹"}, {"measurement": "kcat", "setting": "holo-ACP (E. coli)", "value": "0.01 s⁻¹ and 0.00983 ± 0.00033 s⁻¹"}]}]}
